Data from US20210332339.

Tests used:
Assay in all cases: cell_activity
[1] = system: ZFA36-ND4 (Artificial (ND4 from Clostridiales bacterium))
[2] = system: ZFA36-ND3 (Artificial (ND3 from Clostridium sp. 7_2_43FAA))
[3] = system: ZFA36-FokI-Sharkey (Artificial); settings: SSA reporter HEK293T
[4] = system: ZFA36-FokI (FokI-ND ZFN) (Artificial)
[5] = system: ZFA36-ND1 (Artificial (ND1 from Bacillus sp. SGD-V-76))
[6] = system: TALE-ROSA26-ND1 right (Artificial); settings: SSA reporter pair with left TALEN
[7] = system: TALE-ROSA26-FokI right (Artificial); settings: SSA reporter pair with left TALEN, close to reference
ZFL1-ND1 (Artificial) = settings: SSA, ZFL1-ND1 alone
[8] = system: TALE-HPRT1-FokI right (Artificial); settings: SSA reporter pair with left TALEN
[9] = system: TALE-HPRT1-ND1 right (Artificial); settings: SSA reporter pair with left TALEN
[10] = system: TALE-HPRT1-ND1 left (Artificial); settings: SSA reporter pair with right TALEN
[11] = system: TALE-HPRT1-FokI left (Artificial); settings: SSA reporter pair with right TALEN
[12] = system: TALE-ROSA26-FokI left (Artificial); settings: SSA reporter pair with right TALEN, close to reference
[13] = system: TALE-ROSA26-ND1 left (Artificial); settings: SSA reporter pair with right TALEN

Chain of ZFA36-FokI (FokI-ND ZFN) (Artificial) (chain, as listed by the source): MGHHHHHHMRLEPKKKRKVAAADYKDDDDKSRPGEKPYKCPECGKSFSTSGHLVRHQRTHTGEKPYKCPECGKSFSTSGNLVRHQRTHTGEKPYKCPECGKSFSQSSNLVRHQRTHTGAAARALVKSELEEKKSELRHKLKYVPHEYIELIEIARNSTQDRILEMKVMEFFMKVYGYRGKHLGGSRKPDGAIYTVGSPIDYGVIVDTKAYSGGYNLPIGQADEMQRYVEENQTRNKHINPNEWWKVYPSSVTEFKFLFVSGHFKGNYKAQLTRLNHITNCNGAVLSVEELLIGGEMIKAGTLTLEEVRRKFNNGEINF
Chain of ZFL1-ND1 (Artificial) (chain, as listed by the source): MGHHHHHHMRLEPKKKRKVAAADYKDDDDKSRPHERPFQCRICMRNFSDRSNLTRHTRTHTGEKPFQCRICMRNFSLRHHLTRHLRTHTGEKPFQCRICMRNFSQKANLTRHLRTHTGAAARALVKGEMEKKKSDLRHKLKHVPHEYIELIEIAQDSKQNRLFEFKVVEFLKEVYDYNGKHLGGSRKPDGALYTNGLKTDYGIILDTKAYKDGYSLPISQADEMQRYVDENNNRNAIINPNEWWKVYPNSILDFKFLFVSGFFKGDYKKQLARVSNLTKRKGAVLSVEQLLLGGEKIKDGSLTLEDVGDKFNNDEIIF
Chain of ZFA36-FokI-Sharkey (Artificial) (chain, as listed by the source): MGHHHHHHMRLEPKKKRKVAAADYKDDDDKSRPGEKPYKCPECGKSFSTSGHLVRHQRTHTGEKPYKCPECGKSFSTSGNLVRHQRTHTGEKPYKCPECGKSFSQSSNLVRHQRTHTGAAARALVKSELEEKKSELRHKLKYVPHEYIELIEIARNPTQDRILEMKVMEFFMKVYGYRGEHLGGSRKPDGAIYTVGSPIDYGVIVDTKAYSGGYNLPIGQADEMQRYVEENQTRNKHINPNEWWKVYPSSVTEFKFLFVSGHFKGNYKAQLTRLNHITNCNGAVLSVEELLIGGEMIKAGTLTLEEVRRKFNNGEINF

ACCATCTTCAAGAGAGAAGATGGC (double strand) [ZFA36-ZFA36 CHO-K1 2nd site]
activity (% mutated clones) ([1]; CHO-K1, 0/14): 0 | activity (% mutated clones) ([2]; CHO-K1, 3/16): 18.8

ACCATCTTCCACTCTGAAGATGGA (double strand) [ZFA36-ZFA36 CHO-K1 1st site]
activity (% mutated clones) ([1]; CHO-K1, 0/16, no cleavage detected): 0 | activity (% mutated clones) ([2]; CHO-K1, 0/15, Cel-I about 25-45% of FokI depending on site): 0

ACCATCTTCNNNNNNGAAGATGGT (double strand) [ZFA36-6bp-ZFA36 site]
binding signal (fold of ZFA36-FokI) ([1]; SSA reporter HEK293T): 0.2 | binding signal (fold of ZFA36-FokI) [3]: 1.5 | binding signal (fold of ZFA36-FokI) ([2]; SSA reporter HEK293T): 0.2 | binding signal ([4]; SSA reporter HEK293T, reference): 1 | binding signal (fold of ZFA36-FokI) ([5]; SSA reporter HEK293T): > 1.2

GCCTCGACTTGCAGATCA (double strand) [ROSA26 right half-site (top strand)]
binding signal (fold of TALE-ROSA26-FokI) [6]: 2 | binding signal (fold of ZFA36-FokI) [7]: 1

GTCACCTTCNNNNNNGAAGATGGT (double strand) [ZFL1-6bp-ZFA36 site]
binding signal (ZFL1-ND1 (Artificial)): 40% | binding signal ([4]; SSA, ZFA36-FokI alone): 35% | binding signal ([5]; SSA, ZFA36-ND1 alone): 90%

TCCTAATCACTATGTCGA (double strand) [HPRT1 right half-site (top strand)]
binding signal (fold of ZFA36-FokI) [8]: 0.5 | binding signal (fold of TALE-HPRT1-FokI) [9]: 2

TGAACCAGGCTATGACCT (double strand) [HPRT1 left half-site]
binding signal (fold of TALE-HPRT1-FokI) [10]: 2 | binding signal (fold of ZFA36-FokI) [11]: 0.5

TGCCCAGAAGACTCCCG (double strand) [ROSA26 left half-site]
binding signal (fold of ZFA36-FokI) [12]: 1 | binding signal (fold of TALE-ROSA26-FokI) [13]: 2
